Source: patent publication USRE48558 (Genentech, dated 2021)

Tests used:
[1] = target: T1, human CD79b on the cell surface (human, UniProt P40259 29-229); experiment: FACS on DoHH-2 cells, Fab, PE anti-human kappa detection
T1 construct: In the Scatchard analysis the BJAB line also stably expressed cynomolgus CD79b; also called PRO36249; endogenous human CD79b on DoHH-2, BJAB and BJAB-luciferase cells
T1 sequence: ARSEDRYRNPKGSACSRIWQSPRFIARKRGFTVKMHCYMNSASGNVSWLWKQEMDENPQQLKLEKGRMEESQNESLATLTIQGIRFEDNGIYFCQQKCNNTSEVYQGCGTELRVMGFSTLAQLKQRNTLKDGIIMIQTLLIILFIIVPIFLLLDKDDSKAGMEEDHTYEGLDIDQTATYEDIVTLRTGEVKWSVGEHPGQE

[2] = target: T2, extracellular domain of human CD79b (human, UniProt P40259 29-159); experiment: phage selection, Fab on phage, plate-bound huCD79becd
T2 construct: also called huCD79becd; huCD79b-ecd
T2 sequence: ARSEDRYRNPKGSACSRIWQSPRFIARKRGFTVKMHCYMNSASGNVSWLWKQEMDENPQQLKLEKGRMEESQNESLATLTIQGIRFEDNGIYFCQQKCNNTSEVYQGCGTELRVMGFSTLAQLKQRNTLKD

[3] = target: T3, extracellular domain of human CD79b fused to Fc (human, UniProt P40259 29-159); experiment: SPR (Biacore), Fab against MA79b Fab, immobilized huCD79becd-Fc
T3 construct: also called huCD79becd-Fc; huCD79b-Fc; not shown: Fc part of the fusion
T3 sequence: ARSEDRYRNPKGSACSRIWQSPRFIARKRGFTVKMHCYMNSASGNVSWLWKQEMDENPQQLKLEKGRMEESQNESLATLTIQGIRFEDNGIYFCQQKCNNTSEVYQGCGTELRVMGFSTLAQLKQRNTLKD

[4] = target: T3, extracellular domain of human CD79b …; experiment: SPR (Biacore), IgG compared with Fab, immobilized huCD79becd-Fc
[5] = target: T1, human CD79b on the cell surface; experiment: Scatchard analysis, 125I-labelled IgG competed with unlabelled IgG on BJAB cells stably expressing cynomolgus CD79b and endogenous human CD79b
[6] = target: T2, extracellular domain of human CD79b; experiment: SPR (Biacore), IgG, immobilized huCD79becd
[7] = target: T1, human CD79b on the cell surface; experiment: FACS on BJAB-luciferase cells, PE anti-human IgG detection
[8] = target: T1, human CD79b on the cell surface; experiment: Scatchard analysis, IgG, BJAB cells stably expressing cynomolgus CD79b and endogenous human CD79b
[9] = target: T1, human CD79b on the cell surface; experiment: FACS on BJAB-luciferase cells, PE anti-human detection

B1: huMA79b H3-10 (Fab) (Fab, name in Kabat numbering, V domains shown)
VH: EVQLVESGGGLVQPGGSLRLSCAASGYTFSSYWIEWVRQAPGKGLEWVGEILPGGGDTNYNEIFKGRFTISADTSKNTAYLQMNSLRAEDTAVYYCTRRVPIRLDYWGQGTLVTVSS
VL: DIQMTQSPSSLSASVGDRVTITCKASQSVDYDGDSFLNWYQQKPGKAPKLLIYAASNLESGVPSRFSGSGSGTDFTLTISSLQPEDFATYYCQQSNEDPLTFGQGTKVEIKR
notes: Fab on phage in the selection; purified Fab in FACS; rest as huMA79b graft; also called H3-10 mutation
- binding result [1]: binds
- binding result [2]: binds

B2: huMA79b graft variant SEQ ID NO: 106 (Fab, name in Kabat numbering, V domains shown)
VH: EVQLVESGGGLVQPGGSLRLSCAASGYTFSSYWIEWVRQAPGKGLEWVGEILPGGGDTNYNEIFKGRFTISADTSKNTAYLQMNSLRAEDTAVYYCTRRIPVYFDYWGQGTLVTVSS
VL: DIQMTQSPSSLSASVGDRVTITCKASQSVDYDGDSFLNWYQQKPGKAPKLLIYAASNLESGVPSRFSGSGSGTDFTLTISSLQPEDFATYYCQQSNEDPLTFGQGTKVEIKR
notes: Fab on phage; rest as huMA79b graft
- binding result [2]: binds

B3: huMA79b graft variant H1-1 (Fab) (Fab, name in Kabat numbering, V domains shown)
VH: EVQLVESGGGLVQPGGSLRLSCAASGYPFNRYWINWVRQAPGKGLEWVGEILPGGGDTNYNEIFKGRFTISADTSKNTAYLQMNSLRAEDTAVYYCTRRVPVYFDYWGQGTLVTVSS
VL: DIQMTQSPSSLSASVGDRVTITCKASQSVDYDGDSFLNWYQQKPGKAPKLLIYAASNLESGVPSRFSGSGSGTDFTLTISSLQPEDFATYYCQQSNEDPLTFGQGTKVEIKR
notes: Fab on phage in the selection; purified Fab in FACS; rest as huMA79b graft; also called H1-1 mutation
- binding result [1]: binds
- binding result [2]: binds

B4: huMA79b graft variant SEQ ID NO: 105 (Fab, name in Kabat numbering, V domains shown)
VH: EVQLVESGGGLVQPGGSLRLSCAASGYTFSSYWIEWVRQAPGKGLEWVGEILPGGGDTNYNEIFKGRFTISADTSKNTAYLQMNSLRAEDTAVYYCTRRRPVCLDYWGQGTLVTVSS
VL: DIQMTQSPSSLSASVGDRVTITCKASQSVDYDGDSFLNWYQQKPGKAPKLLIYAASNLESGVPSRFSGSGSGTDFTLTISSLQPEDFATYYCQQSNEDPLTFGQGTKVEIKR
notes: as for B2
- binding result [2]: binds

B5: huMA79b L2-2 (Fab) (Fab, name in Kabat numbering, V domains shown)
VH: EVQLVESGGGLVQPGGSLRLSCAASGYTFSSYWIEWVRQAPGKGLEWVGEILPGGGDTNYNEIFKGRFTISADTSKNTAYLQMNSLRAEDTAVYYCTRRVPVYFDYWGQGTLVTVSS
VL: DIQMTQSPSSLSASVGDRVTITCKASQSVDYDGDSFLNWYQQKPGKAPKLLIYAARKLGRGVPSRFSGSGSGTDFTLTISSLQPEDFATYYCQQSNEDPLTFGQGTKVEIKR
notes: Fab on phage in the selection; purified Fab in FACS and Biacore; rest as huMA79b graft; also called L2-2 mutation; MA79b-grafted humanized antibody variant L2-2
- fold improvement in monomeric binding compared to MA79b [3]: 5 fold

B6: huMA79b graft variant SEQ ID NO: 102 (Fab, name in Kabat numbering, V domains shown)
VH: EVQLVESGGGLVQPGGSLRLSCAASGYTFSSYWIEWVRQAPGKGLEWVGEILPGGGDTNYNEIFKGRFTISADTSKNTAYLQMNSLRAEDTAVYYCTRRVPVFLDYWGQGTLVTVSS
VL: DIQMTQSPSSLSASVGDRVTITCKASQSVDYDGDSFLNWYQQKPGKAPKLLIYAASNLESGVPSRFSGSGSGTDFTLTISSLQPEDFATYYCQQSNEDPLTFGQGTKVEIKR
notes: as for B2
- binding result [2]: binds

B7: murine anti-CD79b monoclonal antibody MA79b (antibody, V domains shown)
VL: DIVLTQSPASLAVSLGQRATISCKASQSVDYDGDSFLNWYQQKPGQPPKLFIYAASNLESGIPARFSGSGSGTDFTLNIHPVEEEDAATYYCQQSNEDPLTFGAGTELELKR
VH: EVQLQQSGAELMKPGASVKISCKATGYTFSSYWIEWVKQRPGHGLEWIGEILPGGGDTNYNEIFKGKATFTADTSSNTAYMQLSSLTSEDSAVYYCTRRVPVYFDYWGQGTSVTVSS
notes: Murine IgG; 125I-labelled in the Scatchard analysis; also called murine CD79b antibody; original mouse anti-CD79b monoclonal antibody
- fold avidity component (IgG against Fab of MA79b) [4]: 100 fold
- Kd [5]: 630 pM

B8: MA79b-grafted humanized antibody variant 18 (antibody, human IgG1, kappa)
light: DIQLTQSPSSLSASVGDRVTITCKASQSVDYDGDSFLNWYQQKPGKAPKLLIYAASNLESGVPSRFSGSGSGTDFTLTISSLQPEDFATYYCQQSNEDPLTFGQGTKVEIKRTVAAPSVFIFPPSDEQLKSGTASVVCLLNNFYPREAKVQWKVDNALQSGNSQESVTEQDSKDSTYSLSSTLTLSKADYEKHKVYACEVTHQGLSSPVTKSFNRGEC
heavy: not shown
notes: IgG; also called huMA79b.v18; MA79b.v18
- fold improvement in dimeric binding compared to variant 17 [6]: 2 fold

B9: thio huMA79b.v18-HC(A118C)-BMPEO-DM1 (antibody, human IgG1, kappa)
heavy: not shown
light: DIQLTQSPSSLSASVGDRVTITCKASQSVDYDGDSFLNWYQQKPGKAPKLLIYAASNLESGVPSRFSGSGSGTDFTLTISSLQPEDFATYYCQQSNEDPLTFGQGTKVEIKRTVAAPSVFIFPPSDEQLKSGTASVVCLLNNFYPREAKVQWKVDNALQSGNSQESVTEQDSKDSTYSLSSTLTLSKADYEKHKVYACEVTHQGLSSPVTKSFNRGEC
modifications: BMPEO-DM1 on the engineered Cys at EU position 118 (sequential 118; Kabat 114)
notes: Cysteine engineered antibody drug conjugate; also called huMA79b.v18-HC(A118C) thioMAb-BMPEO-DM1
- binding result [7]: binds

B10: thio huMA79b.v18-HC(A118C)-MC-MMAF (antibody, human IgG1, kappa)
heavy: not shown
light: DIQLTQSPSSLSASVGDRVTITCKASQSVDYDGDSFLNWYQQKPGKAPKLLIYAASNLESGVPSRFSGSGSGTDFTLTISSLQPEDFATYYCQQSNEDPLTFGQGTKVEIKRTVAAPSVFIFPPSDEQLKSGTASVVCLLNNFYPREAKVQWKVDNALQSGNSQESVTEQDSKDSTYSLSSTLTLSKADYEKHKVYACEVTHQGLSSPVTKSFNRGEC
modifications: MC-MMAF on the engineered Cys at EU position 118 (sequential 118; Kabat 114)
notes: Cysteine engineered antibody drug conjugate
- binding result [7]: binds

B11: MA79b-grafted humanized antibody variant 28 (antibody, human IgG1, kappa)
light: DIQLTQSPSSLSASVGDRVTITCKASQSVDYEGDSFLNWYQQKPGKAPKLLIYAASNLESGVPSRFSGSGSGTDFTLTISSLQPEDFATYYCQQSNEDPLTFGQGTKVEIKRTVAAPSVFIFPPSDEQLKSGTASVVCLLNNFYPREAKVQWKVDNALQSGNSQESVTEQDSKDSTYSLSSTLTLSKADYEKHKVYACEVTHQGLSSPVTKSFNRGEC
heavy: not shown
notes: IgG; also called huMA79b.v28
- Kd [8]: 440 pM

B12: thio huMA79b.v18-HC(A118C)-MC-vcPAB-MMAE (antibody, human IgG1, kappa)
heavy: not shown
light: DIQLTQSPSSLSASVGDRVTITCKASQSVDYDGDSFLNWYQQKPGKAPKLLIYAASNLESGVPSRFSGSGSGTDFTLTISSLQPEDFATYYCQQSNEDPLTFGQGTKVEIKRTVAAPSVFIFPPSDEQLKSGTASVVCLLNNFYPREAKVQWKVDNALQSGNSQESVTEQDSKDSTYSLSSTLTLSKADYEKHKVYACEVTHQGLSSPVTKSFNRGEC
modifications: MC-val-cit-PAB-MMAE on the engineered Cys at EU position 118 (sequential 118; Kabat 114)
notes: as for B10
- binding result [7]: binds

B13: thio huMA79b.v28-HC(A118C)-BMPEO-DM1 (antibody, human IgG1, kappa)
heavy: not shown
light: DIQLTQSPSSLSASVGDRVTITCKASQSVDYEGDSFLNWYQQKPGKAPKLLIYAASNLESGVPSRFSGSGSGTDFTLTISSLQPEDFATYYCQQSNEDPLTFGQGTKVEIKRTVAAPSVFIFPPSDEQLKSGTASVVCLLNNFYPREAKVQWKVDNALQSGNSQESVTEQDSKDSTYSLSSTLTLSKADYEKHKVYACEVTHQGLSSPVTKSFNRGEC
modifications: BMPEO-DM1 on the engineered Cys at EU position 118 (sequential 118; Kabat 114)
notes: as for B10
- binding result [9]: binds

B14: MA79b-grafted humanized antibody variant 32 (antibody, human IgG1, kappa, V domains shown)
VH: EVQLVESGGGLVQPGGSLRLSCAASGYTFSSYWIEWVRQAPGKGLEWIGEILPGGGDTNYNEIFKGRATFSADTSKNTAYLQMNSLRAEDTAVYYCTRRVPIRLDYWGQGTLVTVSS
VL: DIQLTQSPSSLSASVGDRVTITCKASQSVDYSGDSFLNWYQQKPGKAPKLFIYAASNLESGVPSRFSGSGSGTDFTLTISSLQPEDFATYYCQQSNEDPLTFGQGTKVEIKR
notes: also called huMA79b.v32; MA79b.v32
- Kd [8]: 240 pM

B15: thio huMA79b.v28-HC(A118C)-MC-MMAF (antibody, human IgG1, kappa)
heavy: not shown
light: DIQLTQSPSSLSASVGDRVTITCKASQSVDYEGDSFLNWYQQKPGKAPKLLIYAASNLESGVPSRFSGSGSGTDFTLTISSLQPEDFATYYCQQSNEDPLTFGQGTKVEIKRTVAAPSVFIFPPSDEQLKSGTASVVCLLNNFYPREAKVQWKVDNALQSGNSQESVTEQDSKDSTYSLSSTLTLSKADYEKHKVYACEVTHQGLSSPVTKSFNRGEC
modifications: MC-MMAF on the engineered Cys at EU position 118 (sequential 118; Kabat 114)
notes: as for B10
- binding result [9]: binds

B16: thio huMA79b.v28-HC(A118C)-MCvcPAB-MMAE (antibody, human IgG1, kappa)
heavy: not shown
light: DIQLTQSPSSLSASVGDRVTITCKASQSVDYEGDSFLNWYQQKPGKAPKLLIYAASNLESGVPSRFSGSGSGTDFTLTISSLQPEDFATYYCQQSNEDPLTFGQGTKVEIKRTVAAPSVFIFPPSDEQLKSGTASVVCLLNNFYPREAKVQWKVDNALQSGNSQESVTEQDSKDSTYSLSSTLTLSKADYEKHKVYACEVTHQGLSSPVTKSFNRGEC
modifications: MC-val-cit-PAB-MMAE on the engineered Cys at EU position 118 (sequential 118; Kabat 114)
notes: Cysteine engineered antibody drug conjugate; also called thio huMA79b.v28-HC(A118C)-MC-val-cit-PAB-MMAE
- binding result [9]: binds

B17: MA79b-grafted humanized antibody variant 17 (antibody, human IgG1, kappa, V domains shown)
VH: EVQLVESGGGLVQPGGSLRLSCAASGYTFSSYWIEWVRQAPGKGLEWIGEILPGGGDTNYNEIFKGRATFSADTSKNTAYLQMNSLRAEDTAVYYCTRRVPVYFDYWGQGTLVTVSS
VL: DIQLTQSPSSLSASVGDRVTITCKASQSVDYDGDSFLNWYQQKPGKAPKLLIYAASNLESGVPSRFSGSGSGTDFTLTISSLQPEDFATYYCQQSNEDPLTFGQGTKVEIKR
notes: IgG; also called huMA79b.v17
- binding result [6]: binds
